Article PMC8749432

Assays:
[1] = target: HIV-1 BG505.W6M.B1 envelope glycoprotein A204E on SHIV-BG505 virions (HIV-1)
[2] = target: HIV-1 BG505.W6M.B1 envelope glycoprotein I423A on SHIV-BG505 virions (HIV-1)
[3] = target: HIV-1 BG505.W6M.B1 envelope glycoprotein L193A on SHIV-BG505 virions (HIV-1)

“Soluble rhesus CD4 (Met1-Trp390) with C-terminal 6×His tag (from UniProt P16003 26-390) (domain or fragment)” gave a neutralisation of SHIV-BG505 infection of TZM-bl cells by soluble rhCD4; sensitivity against WT SHIV (fold more sensitive than WT SHIV) [1] of 1500, a neutralisation of SHIV-BG505 infection of TZM-bl cells by soluble rhCD4; sensitivity against WT SHIV (fold more sensitive than WT SHIV) [2] of 30 and a neutralisation of SHIV-BG505 infection of TZM-bl cells by soluble rhCD4; sensitivity against WT SHIV (fold more sensitive than WT SHIV) [3] of 3.
